Assay results as given in US20260275311, “CRISPR NUCLEASE POLYPEPTIDES AND GENE EDITING SYSTEMS COMPRISING SUCH” (ARBOR BIOTECHNOLOGIES, INC., published 2026).

T1: Nuclease A
T1 chain: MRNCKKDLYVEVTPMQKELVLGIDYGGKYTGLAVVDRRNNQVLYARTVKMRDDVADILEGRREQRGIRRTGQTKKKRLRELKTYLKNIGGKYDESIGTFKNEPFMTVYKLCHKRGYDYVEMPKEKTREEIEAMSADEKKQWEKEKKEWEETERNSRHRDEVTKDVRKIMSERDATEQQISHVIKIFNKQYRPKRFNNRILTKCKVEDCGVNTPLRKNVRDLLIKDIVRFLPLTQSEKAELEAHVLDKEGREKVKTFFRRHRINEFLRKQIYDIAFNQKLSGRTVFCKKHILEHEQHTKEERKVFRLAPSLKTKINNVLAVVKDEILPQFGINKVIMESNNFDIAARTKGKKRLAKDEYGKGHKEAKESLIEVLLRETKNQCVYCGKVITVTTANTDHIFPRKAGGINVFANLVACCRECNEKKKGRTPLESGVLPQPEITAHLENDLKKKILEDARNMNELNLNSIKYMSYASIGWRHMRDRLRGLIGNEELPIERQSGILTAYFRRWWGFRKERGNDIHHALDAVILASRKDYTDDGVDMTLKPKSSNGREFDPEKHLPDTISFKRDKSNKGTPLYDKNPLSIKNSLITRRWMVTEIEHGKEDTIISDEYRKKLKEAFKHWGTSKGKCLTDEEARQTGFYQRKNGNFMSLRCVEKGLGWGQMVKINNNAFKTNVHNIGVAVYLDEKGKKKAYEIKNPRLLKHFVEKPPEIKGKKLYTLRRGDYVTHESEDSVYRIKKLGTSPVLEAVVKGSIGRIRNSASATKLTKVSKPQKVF

T2: Nuclease A I67R/D568R/E706R
T2 chain: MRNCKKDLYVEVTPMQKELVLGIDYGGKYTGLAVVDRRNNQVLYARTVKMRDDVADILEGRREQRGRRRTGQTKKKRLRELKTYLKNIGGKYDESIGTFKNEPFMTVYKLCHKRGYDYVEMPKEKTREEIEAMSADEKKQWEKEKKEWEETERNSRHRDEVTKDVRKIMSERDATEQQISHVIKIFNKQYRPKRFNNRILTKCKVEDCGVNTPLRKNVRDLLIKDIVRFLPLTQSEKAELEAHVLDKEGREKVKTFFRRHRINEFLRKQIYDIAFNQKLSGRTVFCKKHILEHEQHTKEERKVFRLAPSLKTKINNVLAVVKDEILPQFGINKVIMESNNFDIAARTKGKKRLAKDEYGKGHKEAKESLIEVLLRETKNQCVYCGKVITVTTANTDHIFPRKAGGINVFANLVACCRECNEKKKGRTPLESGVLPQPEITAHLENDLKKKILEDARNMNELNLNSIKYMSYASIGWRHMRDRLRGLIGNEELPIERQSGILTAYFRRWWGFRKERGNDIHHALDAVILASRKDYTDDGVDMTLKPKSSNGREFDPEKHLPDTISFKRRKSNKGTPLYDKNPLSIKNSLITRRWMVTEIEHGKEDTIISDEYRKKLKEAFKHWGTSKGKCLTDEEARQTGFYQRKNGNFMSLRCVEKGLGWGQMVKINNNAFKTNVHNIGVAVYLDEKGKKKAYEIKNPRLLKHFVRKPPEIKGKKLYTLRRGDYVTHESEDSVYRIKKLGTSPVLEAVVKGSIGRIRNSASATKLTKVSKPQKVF

T3: Nuclease A I67R (I67R)
T3 chain: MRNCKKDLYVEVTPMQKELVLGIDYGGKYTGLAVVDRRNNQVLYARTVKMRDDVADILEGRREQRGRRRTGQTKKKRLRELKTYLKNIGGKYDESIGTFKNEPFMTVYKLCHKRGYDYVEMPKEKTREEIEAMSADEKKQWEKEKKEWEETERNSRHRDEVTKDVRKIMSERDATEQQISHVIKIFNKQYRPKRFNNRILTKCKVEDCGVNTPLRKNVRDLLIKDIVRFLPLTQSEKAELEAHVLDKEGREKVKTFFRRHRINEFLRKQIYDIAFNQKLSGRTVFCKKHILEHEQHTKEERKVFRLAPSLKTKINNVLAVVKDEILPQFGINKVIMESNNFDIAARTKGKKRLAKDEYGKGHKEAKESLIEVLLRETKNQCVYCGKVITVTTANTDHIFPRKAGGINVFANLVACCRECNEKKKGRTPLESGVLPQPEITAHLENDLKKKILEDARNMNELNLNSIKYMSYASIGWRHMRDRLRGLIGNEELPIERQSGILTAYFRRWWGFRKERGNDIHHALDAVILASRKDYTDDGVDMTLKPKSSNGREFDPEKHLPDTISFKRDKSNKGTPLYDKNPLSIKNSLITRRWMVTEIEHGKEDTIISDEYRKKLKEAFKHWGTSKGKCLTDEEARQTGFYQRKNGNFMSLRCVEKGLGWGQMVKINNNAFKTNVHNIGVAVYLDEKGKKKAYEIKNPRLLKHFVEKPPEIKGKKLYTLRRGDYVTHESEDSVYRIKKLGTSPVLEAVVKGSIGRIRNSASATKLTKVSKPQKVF


Tests used:
Settings in all cases: tags: N-terminal SV40 NLS, C-terminal XTEN linker + nucleoplasmin NLS
Nuclease A = target: T1, Nuclease A; experiment: cell_activity; PAM NGG (AGG); HEK293T
Experimental: (§1) Approximately 16 hours prior to transfection, 25,000 HEK293T cells in DMEM/10% FBS+Pen/Strep (D10 media) were plated into each well of a 96-well plate. On the day of transfection, the cells were 50-90% confluent. For each well to be transfected, a mixture of Lipofectamine 2000™ (ThermoFisher Scientific) and Opti-MEM™ (ThermoFisher Scientific) was prepared and incubated at room temperature for 5 minutes (Solution 1). After incubation, the Lipofectamine 2000™: Opti-MEM™ mixture was added to a separate mixture containing the CRISPR nuclease plasmid (NLS-tagged), RNA guide plasmid, and Opti-MEM™ (Solution 2). In the case of negative controls, the CRISPR nuclease plasmid was excluded. Solutions 1 and 2 were mixed by pipetting up and down, then incubated at room temperature for 25 minutes. Following incubation, the Solution 1 and 2 mixture was added dropwise to each well of a 96-well plate containing the cells. Approximately 72 hours post transfection, cells were trypsinized by adding TrypLE™ (ThermoFisher Scientific) to the center of each well and incubating at 37° C. for approximately 5 minutes. D10 media was then added to each well and mixed to resuspend cells. The resuspended cells were centrifuged for 10 minutes to obtain a pellet, and the supernatant was discarded. The cell pellet was then resuspended in QuickExtract™ buffer (Lucigen®), and cells were incubated at 65° C. for 15 minutes, 68° C. for 15 minutes, and 98° C. for 10 minutes.
(§2) Each Nuclease A variant and RNA guide (see Table 5) was cloned as described in Example 2. HEK293T cells were further transfected, followed by NGS analysis, as described in Example 2. For each target, indel ratios, referring to the percentage of NGS reads comprising indels, were calculated for Nuclease A (SEQ ID NO: 1) and for each variant of Nuclease A. The indel ratios shown in Table 6 were calculated as the average of two bioreplicates, each of which contained two technical replicates.

[1] = target: T2, Nuclease A I67R/D568R/E706R; experiment: cell_activity; PAM NGG (AGG); HEK293T
Experimental: as §1, §2

Nuclease A I67R = target: T3, Nuclease A I67R; experiment: cell_activity; PAM NGG; HEK293T

| Binder | activity (Nuclease A) [indel ratio] | activity [1] [indel ratio] | binding signal (Nuclease A I67R) [fold vs Nuclease A] |
| --- | --- | --- | --- |
| Nuclease A VEGFA-T6 guide ; VEGFA-T6 target (ssRNA ; dsDNA) RNA: UUUGCCCAUACUGGGGACCAGUUACAGUUAAGGCUCUUUGGAAACAAAGAAGCCUUAAUUGUAAAACGCCUAUAUGGUAAAGUGAUGUACGUUUGGGUAUAUAUCGCCAGCCUGAACCUCUACGCCAGAAAUGGCAGCUUUAUCAUGGGUUAGGACGAUAUUUAAAAAACUUUCUGCGGCUUGCUUACUUUAGUAAGCUUUGUGGCUGAGGCAGAAUUCCUU DNA 1: TTTGCCCATACTGGGGACCA DNA 2: TGGTCCCCAGTATGGGCAAA | 0.049 | 0.325 | 4.43 |
| Nuclease A AAVS1-T3 guide ; AAVS1-T3 target (ssRNA ; dsDNA) RNA: UUGUGAGAAUGGUGCGUCCUGUUACAGUUAAGGCUCUUUGGAAACAAAGAAGCCUUAAUUGUAAAACGCCUAUAUGGUAAAGUGAUGUACGUUUGGGUAUAUAUCGCCAGCCUGAACCUCUACGCCAGAAAUGGCAGCUUUAUCAUGGGUUAGGACGAUAUUUAAAAAACUUUCUGCGGCUUGCUUACUUUAGUAAGCUUUGUGGCUGAGGCAGAAUUCCUU DNA 1: TTGTGAGAATGGTGCGTCCT DNA 2: AGGACGCACCATTCTCACAA | 0.044 | 0.37 | 7.07 |
